Assay results reported in PMC2645691.

Target: FLAG-tagged MAGI-1L (C. elegans)
Assay: co-IP; COS-7 cells cotransfected with FLAG- and GST-tagged proteins; lysis in modified RIPA (50 mM Tris-HCl pH 7.4, 125 mM NaCl, 0.25% NP-40); anti-FLAG beads; blots with anti-FLAG and anti-GST, films quantified against input

Binder | percent coimmunoprecipitated [%]
GST fused to the GLR-2 cytosolic domain (GST::GLR-2) (domain or fragment) VEFLFRKNKENREKERNRMRSSRPLKPGILASCERAKQKQLQNRRTKSEEVSTPRSTLF | 10
GST fused to the GLR-2 cytosolic domain with a mutated PDZ recognition motif (GST::GLR-2AAA) (domain or fragment) VEFLFRKNKENREKERNRMRSSRPLKPGILASCERAKQKQLQNRRTKSEEVSTPRSAAA | 0 to 2
